Broadly, the stoichiometry N is a count of units in the complex or per binding partner. Broadly, the Kd is the constant that tells how readily two partners part at equilibrium.

B6: NTD_(1-53)-sfGFP-His (domain or fragment)
chain: MNTRNTRSKQRAPFGVSSSVKPRLDLIEQAPNPAYDRHPACITLPERTCRHPL

Series [1] concerns the target T1, Rubisco-strep (H. neapolitanus CbbL8S8) (H. neapolitanus, UniProt O85040 1-473; P45686 1-110). Kind of series: cryo-EM structure.
For series [2], the target named is T2, CbbS (Rubisco small subunit) (H. neapolitanus, UniProt P45686 1-110).
T2 sequence: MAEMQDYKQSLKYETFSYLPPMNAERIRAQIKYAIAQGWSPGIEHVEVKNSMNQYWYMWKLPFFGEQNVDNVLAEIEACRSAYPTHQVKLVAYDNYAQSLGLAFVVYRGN
Put plainly: cryo-EM structure.

The target of a further series is biotinylated Rubisco (H. neapolitanus, UniProt O85040 1-473; P45686 1-110, biotin (subunit and site not stated)). Put plainly: BLI.
The series “cryo-EM structure” deals with the molecule itself. Kind of series: cryo-EM structure.
Series [3] has as its target T1, Rubisco-strep (H. neapolitanus CbbL8S8). Kind of series: BLI. (In BLI a coated tip is dipped into the sample, and binding shifts an interference pattern.)
For the series “NTD_(1-53)-sfGFP-His”, the target named is B6. Put plainly: BLI.
Series [4] addresses T1, Rubisco-strep (H. neapolitanus CbbL8S8). Put plainly: SEC. For orientation: In gel filtration, larger molecules generally elute earlier.

Regarding MNTRNTRSKQRAPFGVSSSVKPRLDLIEQAPNPAYDRHPACITLPERTCR [NTD_(1-50) peptide (CsoSCA residue 1-50)], the “stoichiometry N” value in series [1] was 8. Moreover, in series [2], the binding result is on record as “binds”.

B1: CsoSCA-MBP (enzyme)
chain: MNTRNTRSKQRAPFGVSSSVKPRLDLIEQAPNPAYDRHPACITLPERTCRHPLTDLEANEQLGRCEDSVKNRFDRVIPFLQVVAGIPLGLDYVTRVQELAQSSLGHTLPEELLKDNWISGHNLKGIFGYATAKALTAATEQFSRKIMSEKDDSASAIGFFLDCGFHAVDISPCADGRLKGLLPYILRLPLTAFTYRKAYAGSMFDIEDDLAQWEKNELRRYREGVPNTADQPTRYLKIAVYHFSTSDPTHSGCAAHGSNDRAALEAALTQLMKFREAVENAHCCGASIDILLIGVDTDTDAIRVHIPDSKGFLNPYRYVDNTVTYAQTLHLAPDEARVIIHEAILNANRSDGWAKGNGVASEGMRRFIGQLLINNLSQIDYVVNRHGGRYPPNDIGHAERYISVGDGFDEVQIRNLAYYAHLDTVEENAIDVDVGIKIFTKLNLSRGLPIPIAIHYRYDPNVPGSRERTVVKARRIYNAIKERFSSLDEQNLLQFRLSVQAQDIGSPIEEVASA
Turning to B1, the Kd with biotinylated Rubisco was determined as 1.2 ± 0.1 nM.

B2: CbbL (Rubisco large subunit) (natural protein)
chain: MAVKKYSAGVKEYRQTYWMPEYTPLDSDILACFKITPQPGVDREEAAAAVAAESSTGTWTTVWTDLLTDMDYYKGRAYRIEDVPGDDAAFYAFIAYPIDLFEEGSVVNVFTSLVGNVFGFKAVRGLRLEDVRFPLAYVKTCGGPPHGIQVERDKMNKYGRPLLGCTIKPKLGLSAKNYGRAVYECLRGGLDFTKDDENINSQPFMRWRDRFLFVQDATETAEAQTGERKGHYLNVTAPTPEEMYKRAEFAKEIGAPIIMHDYITGGFTANTGLAKWCQDNGVLLHIHRAMHAVIDRNPNHGIHFRVLTKILRLSGGDHLHTGTVVGKLEGDRASTLGWIDLLRESFIPEDRSRGIFFDQDWGSMPGVFAVASGGIHVWHMPALVNIFGDDSVLQFGGGTLGHPWGNAAGAAANRVALEACVEARNQGRDIEKEGKEILTAAAQHSPELKIAMETWKEIKFEFDTVDKLDTQNR
Consider B2, for which, in the series “cryo-EM structure”, the binding result was “binds”.

B3: NTD_(1-53)-sfGFP R23A (domain or fragment)
chain: MNTRNTRSKQRAPFGVSSSVKPALDLIEQAPNPAYDRHPACITLPERTCRHPL
For the molecule B3, the binding result in series [3] is “binds”.

B4: Rubisco CbbL Y72A (complex)
chain 1: MAVKKYSAGVKEYRQTYWMPEYTPLDSDILACFKITPQPGVDREEAAAAVAAESSTGTWTTVWTDLLTDMDAYKGRAYRIEDVPGDDAAFYAFIAYPIDLFEEGSVVNVFTSLVGNVFGFKAVRGLRLEDVRFPLAYVKTCGGPPHGIQVERDKMNKYGRPLLGCTIKPKLGLSAKNYGRAVYECLRGGLDFTKDDENINSQPFMRWRDRFLFVQDATETAEAQTGERKGHYLNVTAPTPEEMYKRAEFAKEIGAPIIMHDYITGGFTANTGLAKWCQDNGVLLHIHRAMHAVIDRNPNHGIHFRVLTKILRLSGGDHLHTGTVVGKLEGDRASTLGWIDLLRESFIPEDRSRGIFFDQDWGSMPGVFAVASGGIHVWHMPALVNIFGDDSVLQFGGGTLGHPWGNAAGAAANRVALEACVEARNQGRDIEKEGKEILTAAAQHSPELKIAMETWKEIKFEFDTVDKLDTQNR
chain 2: MAEMQDYKQSLKYETFSYLPPMNAERIRAQIKYAIAQGWSPGIEHVEVKNSMNQYWYMWKLPFFGEQNVDNVLAEIEACRSAYPTHQVKLVAYDNYAQSLGLAFVVYRGN
Take B4: in the series with NTD_(1-53)-sfGFP-His, the “fold increase in KD against wild type” value was found to be 10 fold.

B5: Rubisco CbbL D99A (complex)
chain 1: MAVKKYSAGVKEYRQTYWMPEYTPLDSDILACFKITPQPGVDREEAAAAVAAESSTGTWTTVWTDLLTDMDYYKGRAYRIEDVPGDDAAFYAFIAYPIALFEEGSVVNVFTSLVGNVFGFKAVRGLRLEDVRFPLAYVKTCGGPPHGIQVERDKMNKYGRPLLGCTIKPKLGLSAKNYGRAVYECLRGGLDFTKDDENINSQPFMRWRDRFLFVQDATETAEAQTGERKGHYLNVTAPTPEEMYKRAEFAKEIGAPIIMHDYITGGFTANTGLAKWCQDNGVLLHIHRAMHAVIDRNPNHGIHFRVLTKILRLSGGDHLHTGTVVGKLEGDRASTLGWIDLLRESFIPEDRSRGIFFDQDWGSMPGVFAVASGGIHVWHMPALVNIFGDDSVLQFGGGTLGHPWGNAAGAAANRVALEACVEARNQGRDIEKEGKEILTAAAQHSPELKIAMETWKEIKFEFDTVDKLDTQNR
chain 2: MAEMQDYKQSLKYETFSYLPPMNAERIRAQIKYAIAQGWSPGIEHVEVKNSMNQYWYMWKLPFFGEQNVDNVLAEIEACRSAYPTHQVKLVAYDNYAQSLGLAFVVYRGN
In the case of B5, in the series with NTD_(1-53)-sfGFP-His, the “fold increase in KD against wild type” value is 10 fold.

For the molecule B6, the binding result in series [4] was “binds”.

These data come from publication doi:10.1101/2021.11.05.467472 (bioRxiv, 2021).
